Experimental findings from patent publication US11419945B2, “Antigen binding proteins” (Glaxo Group Limited, priority 2011, dated 2022) are described below.

One assay addresses T1, human BCMA HEK293 (Homo sapiens, UniProt Q02223).
T1 construct: expressed in transfected cells; host or cells: HEK293
T1 sequence (Q02223 1-184): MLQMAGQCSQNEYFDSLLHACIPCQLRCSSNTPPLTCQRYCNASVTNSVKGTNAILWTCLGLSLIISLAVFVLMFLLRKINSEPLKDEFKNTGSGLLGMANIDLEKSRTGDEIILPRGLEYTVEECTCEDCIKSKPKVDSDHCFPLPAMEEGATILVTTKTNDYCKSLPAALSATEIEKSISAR
Kind of assay: FMAT binding assay, human BCMA expressing HEK293 cells. The following applies: range of antibody concentrations. On the procedure: (§1) Cryopreserved transfected human, cyno BCMA and mock transfected HEK293 cells were recovered from LN2 storage. Assay wells were prepared with human chimeric CA8 antibody, at a range of different concentrations, mixed with human BCMA HEK293, cyno BCMA HEK293 and mock transfected cells respectively. Anti-human IgG FMAT Blue secondary conjugate was added for detection of human chimeric CA8. The assay plates were left for a minimum of 90 minutes before the result was read on the ABI8200 (FMAT) plate reader.

The next assay has as its system cyno BCMA HEK293. Kind of assay: FMAT binding assay, cyno BCMA expressing HEK293 cells. The following applies: range of antibody concentrations. On the procedure:
as §1

For a further assay, the target named is T2, Human BCMA-Fc (Homo sapiens, UniProt Q02223).
T2 construct: CD33 signal peptide (N); TEV site (internal)
T2 sequence (Q02223 with tags, fused parts or gaps): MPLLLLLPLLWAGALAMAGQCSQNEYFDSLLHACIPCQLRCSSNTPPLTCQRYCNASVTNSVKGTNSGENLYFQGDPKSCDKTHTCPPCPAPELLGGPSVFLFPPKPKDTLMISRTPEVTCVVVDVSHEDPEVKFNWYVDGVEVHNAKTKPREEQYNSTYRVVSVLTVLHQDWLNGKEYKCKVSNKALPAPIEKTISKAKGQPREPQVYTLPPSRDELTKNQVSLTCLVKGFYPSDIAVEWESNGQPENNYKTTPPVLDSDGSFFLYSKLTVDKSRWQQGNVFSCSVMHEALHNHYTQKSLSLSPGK
The experiment in a line: ELISA binding to recombinant human BCMA-Fc. The note with it: 5 ug/ml to 0.1 ug/ml antibody. The procedure:
Chimeric CA8 antibodies were tested for binding to human BCMA and cyno BCMA expressed as Fc fusions. Human BCMA-Fc and cyno BCMA-Fc were coated to ELISA plates and the plates were blocked using BSA to reduce non specific binding. CA8 chimeric antibodies were added in a concentration range from 5 ug/ml to 0.1 ug/ml to the human and cyno BCMA coated ELISA plates. Any bound human chimeric CA8 antibody was detected using anti-human IgG HRP conjugated secondary antibody as appropriate. HRP substrate (TMB) was added to develop the ELISA.
On the technique in general: In an ELISA, binding on a coated surface is turned into a signal by an enzyme label.

The next assay deals with BCMA-Fc. The experiment in a line: Biacore cross reactivity experiment, BCMA-Fc. Type of assay: binding. The note with it: antibody captured on protein A. On the procedure:
(§2) CA8 chimera antibody was injected and captured on protein A. (A protein A derivitised sensorchip was used). Residual protein A binding was blocked with an injection of a high concentration of human IgG solution. BCMA-Fc, TACI-Fc or BAFF-R-Fc solutions were then tested for binding to the antibody. The 3 proteins were injected in sequence and binding events were measured. The surface was regenerated between injection of each protein.
(§3) Sensorgrams were analysed in the Biaevaluation program. Double reference subtraction was done to remove instrument noise and any non-specific binding from the sensorgram curves.
Background: SPR reads the build-up and loss of mass on a sensor chip optically.

For a further assay, the system named is TACI-Fc. Kind of assay: Biacore cross reactivity experiment, TACI-Fc. In kind it is binding. The following applies: antibody captured on protein A. On the procedure: as §2, §3
The next assay has as its system BAFF-R-Fc. The experiment in a line: Biacore cross reactivity experiment, BAFF-R-Fc. The note with it: antibody captured on protein A; listed as CA8 chimera antibody. In kind it is binding. The procedure:
as §2, §3

In a further assay the test system is H929 cells. The experiment in a line: FACS binding of humanised CA8 to H929 cells. On the set-up: species or system human. The note with it: varying concentrations, 20 minutes at RT. The procedure: ARH77-hBCMA 10B5 BCMA expressing transfectant cells or H929 cells were stained with either chimeric CA8 or humanised variants of CA8 designated J6M0, J6M1, J6M2, J9M0, J9M1, J9M2 at varying concentrations for 20 minutes at RT. Cells were then washed with FACS buffer (PBS+0.5% BSA+0.1% sodium azide) to remove unbound antibody. Cells were incubated with a secondary PE labelled anti-human IgG antibody for 15 minutes at RT and then washed with FACS buffer to remove unbound antibody. Cells were analysed by FACS and mean fluorescence intensity (MFI) values measured to determine binding.
Background: In flow cytometry, cells or beads pass a laser one at a time.

Assay [1] has as its target T3, Human commercial BCMA (Homo sapiens, UniProt Q02223).
T3 construct: purchased US Biological B0410
T3 sequence (Q02223 1-184): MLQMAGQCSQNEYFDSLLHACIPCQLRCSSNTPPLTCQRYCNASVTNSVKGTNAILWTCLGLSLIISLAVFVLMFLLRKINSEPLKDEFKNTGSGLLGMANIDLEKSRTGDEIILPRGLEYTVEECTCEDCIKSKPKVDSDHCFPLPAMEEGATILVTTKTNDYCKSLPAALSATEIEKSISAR
Kind of assay: ProteOn analysis of CA8 chimeric and humanised constructs, commercial human BCMA. The following applies: Run 2, commercial human BCMA, 25° C. Type of assay: binding. On the procedure:
The initial screen of CA8 chimeric and humanised variants was carried out on the ProteOn XPR36 (Biorad). The method was as follows; Protein A was immobilised on a GLC chip (Biorad, Cat No: 176-5011) by primary amine coupling, CA8 variants were then captured on this surface and recombinant human BCMA (in house or commercial US Biological, B0410) materials (run 2 only)) passed over at 256, 64, 16, 4, 1 nM with a 0 nM injection (i.e. buffer alone) used to double reference the binding curves, the buffer used is the HBS-EP buffer. 50 mM NaOH was used to regenerate the capture surface. The data was fitted to the 1:1 model using the analysis software inherent to the ProteOn XPR36. Run 1 corresponds to the first screen of humanised CA8 variants (JO to J5 series) and run 2 to the second screen of humanised CA8 variants (J5 to J9 series). Both runs were carried out at 25° C.

For assay [2], the system named is Cyno in house BCMA. Kind of assay: ProteOn analysis of CA8 chimeric and humanised constructs, cyno in house BCMA. In kind it is binding. The note with it: 25° C.; for ka: in M-1s-1 (unit assumed); for kd: in s-1 (unit assumed).
Chain of Cyno in house BCMA (as listed by the source): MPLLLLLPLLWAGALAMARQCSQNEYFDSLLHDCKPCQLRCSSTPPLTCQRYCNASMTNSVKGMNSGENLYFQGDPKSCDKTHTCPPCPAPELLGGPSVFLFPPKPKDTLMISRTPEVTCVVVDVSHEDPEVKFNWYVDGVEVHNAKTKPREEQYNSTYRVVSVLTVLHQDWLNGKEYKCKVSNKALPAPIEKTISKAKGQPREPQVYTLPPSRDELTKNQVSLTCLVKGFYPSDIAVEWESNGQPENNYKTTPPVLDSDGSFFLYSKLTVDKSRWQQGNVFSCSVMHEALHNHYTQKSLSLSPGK
The target in assay [3] is T3, Human commercial BCMA. Kind of assay: BIAcore analysis J7 to J9 series, human commercial BCMA. In kind it is binding. The following applies: 37° C. The procedure: Protein A was immobilised on a CMS chip (GE Healthcare, Cat No: BR-1005-30) by primary amine coupling and this surface was then used to capture the antibody molecules. Recombinant human BCMA (US Biological, B0410) was used as analyte at 256 nM, 64 nM, 16 nM, 4 nM and 1 nM. Regeneration of the capture surface was carried out using 50 mM NaOH. All binding curves were double referenced with a buffer injection (i.e. 0 nM) and the data was fitted to the using the 1:1 model inherent to T100 evaluation software. The run was carried out at 37° C., using HBS-EP as the running buffer.

Assay [4] relates to Cyno in house BCMA. The experiment in a line: BIAcore analysis J7 to J9 series, cyno in house BCMA. The note with it: 37° C. Type of assay: binding.
The test system of assay [5] is ARH77 BCMA transfected target cells (10B5). The experiment in a line: ADCC of chimeric and defucosylated chimeric CA8 with NK cells. Type of assay: cell-based. The note with it: human NK cells, E:T ratio 5:1, 2 hours. The procedure: Human natural killer (NK) cells were incubated with europium labelled ARH77 BCMA transfected target cells (10B5) in the presence of varying concentrations of antibody at an E:T ratio of 5:1 for 2 hours. Europium release from the target cells was measured and specific lysis calculated.

Chain of cyno BCMA HEK293 (as listed by the source): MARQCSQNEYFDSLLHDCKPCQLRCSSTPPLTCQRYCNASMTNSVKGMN
Chain of BAFF-R-Fc (Q96RJ3 1-78 limits assumed): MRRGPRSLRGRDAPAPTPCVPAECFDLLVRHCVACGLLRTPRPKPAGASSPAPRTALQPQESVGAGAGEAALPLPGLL

B1: CA8 Chimera: chimeric anti-BCMA antibody: murine CA8 VH (SEQ ID NO:7) and VL (SEQ ID NO:9) on human γ1 and kappa constant regions (antibody, V domains shown)
VH: EVQLQQSGAVLARPGASVKMSCKGSGYTFTNYWMHWVKQRPGQGLEWIGATYRGHSDTYYNQKFKGKAKLTAVTSTSTAYMELSSLTNEDSAVYYCTRGAIYNGYDVLDNWGQGTLVTVSS
VL: DIQLTQTTSSLSASLGDRVTISCSASQDISNYLNWYQQKPDGTVELVIYYTSNLHSGVPSRFSGSGSGTDYSLTIGYLEPEDVATYYCQQYRKLPWTFGGGSKLEIKR
modifications: human IgG1 and kappa constant regions; mus musculus
On to B1, for which the “binding to human BCMA expressed on HEK293 cells” value in the assay with human BCMA HEK293 is “binds well”. Besides, the “binding to cyno BCMA expressed on HEK293 cells” value with cyno BCMA HEK293 is reported as “binds well”. Moreover, the “binding to recombinant human BCMA (ELISA)” value with Human BCMA-Fc (listed as Chimeric CA8) was “binds to recombinant human and cyno BCMA”; in the assay with Human BCMA-Fc (listed as human chimeric CA8 antibodies) it was “bind to human and cyno BCMA proteins equally”. For the same molecule, in the assay on BCMA-Fc, the “binding to BCMA-Fc” value is reported as “specific for binding to BCMA”. The “binding to TACI-Fc” value in the assay with TACI-Fc (listed as CA8) is on record as “not to TACI”; with TACI-Fc (listed as CA8 chimera antibody), “does not bind”. In the assay with BAFF-R-Fc, the “binding to BAFF-R-Fc” value was “does not bind”. Also, the “dose dependent binding to H929 cells by FACS (MFI)” value in the assay on H929 cells is “bound”. In addition, the ka was found to be 7.05E+05 with Human commercial BCMA [1] (in M-1s-1 (unit assumed)); 3.82E+05 in the assay with Cyno in house BCMA [2] (Run 1, Cyno in house BCMA); 5.89E+04 in the assay with Cyno in house BCMA [2] (Run 2, Cyno in house BCMA); 3.27E+07 with Human commercial BCMA [3] (in M-1s-1 (unit assumed)); 1.15E+06 in the assay on Cyno in house BCMA [4] (in M-1s-1 (unit assumed)). The kd with Human commercial BCMA [1] (in s-1 (unit assumed)) is 9.79E−05; on Cyno in house BCMA [2] (Run 1, Cyno in house BCMA), 1.74E−04; at Cyno in house BCMA [2] (Run 2, Cyno in house BCMA), 1.21E−04; with Human commercial BCMA [3] (in s-1 (unit assumed)), 1.18E−03; on Cyno in house BCMA [4] (in s-1 (unit assumed)) it was 3.49E−04. In addition, the “ADCC activity (specific lysis, europium release)” value in [5] is given as “killed BCMA expressing target cells via ADCC”.
